Measurements reported in US20140161804A1 (AbbVie / Abbott, published 2014).

B1: AE11-1 (antibody, V domains shown)
VH: EVQLVQSGAEVKKPGASVKVSCKASGYTFTSYDVNWVRQATGQGLEWMGWMNPNSGNTGYAQKFQGRVTITADESTSTAYMELSSLRSEDTAVYYCAIFDSDYMDVWGKGTLVTVSS
VL: SYELTQPPSVSLSPGQTARITCSGDALPKQYAYWYQQKPGQAPVLVIYKDTERPSGIPERFSGSSSGTTVTLTISGAQAEDEADYYCQSADSSGTSWVFGGGTKLTVL
notes: Fully human anti-TNF antibody isolated by in vitro display; also called AE11-1 VH; AE11-1 VL
B2: hMAK199-1-h10F7-M11.8 DVD-Ig wt (bispecific antibody, human IgG1, kappa)
heavy: not shown
light: DIQMTQSPSSLSASVGDRVTITCRASQDISQYLNWYQQKPGKAPKLLIYYTSRLQSGVPSRFSGSGSGTDFTLTISSLQPEDFATYFCQQGNTWPPTFGQGTKLEIKRGGSGGGGSGDIQMTQSPSSLSASVGDRVTITCRASSGIISYIDWFQQKPGKAPKRLIYATFDLASGVPSRFSGSGSGTDYTLTISSLQPEDFATYYCRQVGSYPETFGQGTKLEIKRTVAAPSVFIFPPSDEQLKSGTASVVCLLNNFYPREAKVQWKVDNALQSGNSQESVTEQDSKDSTYSLSSTLTLSKADYEKHKVYACEVTHQGLSSPVTKSFNRGEC
notes: DVD-Ig; wild-type IgG1, kappa; GS10 linkers; Uncertain; also called HMAK199-1-h10F7-M11.8 HC DVD wt
B3: hMAK199-1-h10F7-M11.8 QL DVD-Ig (bispecific antibody, human IgG1, kappa, L234A L235A)
heavy: EVQLVQSGAEVKKPGASVKVSCKASGYTFANYGIIWVRQAPGQGLEWMGWINTYTGKPTYAQKFQGRVTMTTDTSTSTAYMELSSLRSEDTAVYYCARKLFTTMDVTDNAMDYWGQGTTVTVSSGGGGSGGGGSEVQLVQSGAEVKKPGSSVKVSCKASGYTFTDYEIHWVRQAPGQGLEWMGVNDPESGGTFYNQKFDGRVTLTADESTSTAYMELSSLRSEDTAVYYCTRYSKWDSFDGMDYWGQGTTVTVSSASTKGPSVFPLAPSSKSTSGGTAALGCLVKDYFPEPVTVSWNSGALTSGVHTFPAVLQSSGLYSLSSVVTVPSSSLGTQTYICNVNHKPSNTKVDKKVEPKSCDKTHTCPPCPAPEAAGGPSVFLFPPKPKDQLMISRTPEVTCVVVDVSHEDPEVKFNWYVDGVEVHNAKTKPREEQYNSTYRVVSVLTVLHQDWLNGKEYKCKVSNKALPAPIEKTISKAKGQPREPQVYTLPPSREEMTKNQVSLTCLVKGFYPSDIAVEWESNGQPENNYKTTPPVLDSDGSFFLYSKLTVDKSRWQQGNVFSCSVLHEALHNHYTQKSLSLSPGK
light: B2 light
notes: DVD-Ig; IgG1 (234,235) mut with QL mutations, kappa; GS10 linkers
B4: hMAK199-1-h10F7-M11.8 DVD-Ig (bispecific antibody, human IgG1, kappa, L234A L235A)
heavy: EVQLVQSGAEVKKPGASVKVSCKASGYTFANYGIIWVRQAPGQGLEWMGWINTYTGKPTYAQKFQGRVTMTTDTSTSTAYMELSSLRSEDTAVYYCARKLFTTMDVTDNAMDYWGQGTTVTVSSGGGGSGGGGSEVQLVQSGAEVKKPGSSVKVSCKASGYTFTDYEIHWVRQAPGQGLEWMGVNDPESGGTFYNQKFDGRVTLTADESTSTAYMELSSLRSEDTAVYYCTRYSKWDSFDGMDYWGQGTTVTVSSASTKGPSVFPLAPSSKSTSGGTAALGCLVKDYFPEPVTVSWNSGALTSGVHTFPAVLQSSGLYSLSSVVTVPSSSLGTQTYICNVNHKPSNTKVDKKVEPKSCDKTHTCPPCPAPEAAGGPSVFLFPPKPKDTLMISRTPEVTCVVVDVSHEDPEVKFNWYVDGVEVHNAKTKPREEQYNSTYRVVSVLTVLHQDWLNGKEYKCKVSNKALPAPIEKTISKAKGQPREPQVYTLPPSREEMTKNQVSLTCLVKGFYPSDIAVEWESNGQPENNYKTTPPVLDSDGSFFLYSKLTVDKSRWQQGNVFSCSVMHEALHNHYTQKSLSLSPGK
light: B2 light
notes: DVD-Ig; IgG1 234,235 mut, kappa; GS10 linkers; also called HMAK199-1-GS10-H10F7-M11 DVD
B5: AE11-7 (antibody, V domains shown)
VH: EVQLVQSGAEVKKPGASVKVSCKTSGYSLTQYPIHWVRQAPGQRPEWMGWISPGNGNTKLSPKFQGRVTLSRDASAGTVFMDLSGLTSDDTAVYFCTSVDLGDHWGQGTLVTVSS
VL: DIVMTQSPEFQSVTPKEKVTITCRASQSIGSSLHWYQQKPDQSPKLLINYASQSFSGVPSRFSGGGSGTDFTLTINSLEAEDAATYYCHQSSNLPITFGQGTRLEIK
notes: Fully human anti-TNF antibody isolated by in vitro display; also called AE11-7 VH; AE11-7 VL
B6: AE11-5 (antibody, V domains shown)
VH: EVQLVQSGAEVKKPGSSAKVSCKASGGTFSSYAISWVRQAPGQGLEWMGGIIPILGTANYAQKFLGRVTITADESTSTVYMELSSLRSEDTAVYYCARGLYYDPTRADYWGQGTLVTVSS
VL: DIVMTQSPDFHSVTPKEKVTITCRASQSIGSSLHWYQQKPDQSPKLLIRHASQSISGVPSRFSGSGSGTDFTLTIHSLEAEDAATYYCHQSSSSPPPTFGQGTQVEIK
notes: Fully human anti-TNF antibody isolated by in vitro display; also called AE11-5 VH; AE11-5 VL
B7: TNF-JK1 (antibody, V domains shown)
VH: EVQLVESGGGLVQPGGSLRLSCATSGFTFNNYWMSWVRQAPGKGLEWVANINHDESEKYYVDSAKGRFTISRDNAEKSLFLQMNSLRAEDTAVYYCARIIRGRVGFDYYNYAMDVWGQGTLVTVSS
VL: DIRLTQSPSPLSASVGDRVTITCRASQSIGNYLNWYQHKPGKAPKLLIYAASSLQSGVPSRFSGTGSGTDFTLTISSLQPEDFATYYCQESYSLIFAGGTKVEIK
notes: Fully human anti-TNF antibody isolated by in vitro display; also called TNF-JK1 VH; TNF-JK1 VL

How the values were obtained:
Human TNF [1] = target: T1, Human TNF (human, UniProt P01375 77-233); test: in vitro display selection on recombinant human TNF
T1 construct: Biotinylated in the ELISA; purified recombinant protein in SPR; also called h TNF; huTNF
T1 sequence (P01375 77-233 limits assumed): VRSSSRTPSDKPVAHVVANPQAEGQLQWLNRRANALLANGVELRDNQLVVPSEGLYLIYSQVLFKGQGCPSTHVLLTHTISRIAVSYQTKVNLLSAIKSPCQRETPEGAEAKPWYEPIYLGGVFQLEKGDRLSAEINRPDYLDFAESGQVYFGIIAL

Human TNF [2] = target: T1, Human TNF; test: SPR (Biacore T200), DVD-Ig captured by anti-human IgG Fc, antigen in solution
Procedure: (§1) The binding of antibodies to purified recombinant IL-17 and TNFα proteins were determined by surface plasmon resonance-based measurements with a Biacore® T200 instrument (GE Healthcare) using running HBS-EP (10 mM HEPES [pH 7.4], 150 mM NaCl, 3 mM EDTA, and 0.005% surfactant P20) containing 0.1 mg/ml BSA at 25° C. All chemicals were obtained from Biacore® AB (GE Healthcare) or otherwise from a different source as described in the text. Approximately 5000 RU of goat anti-human IgG (Fcγ) fragment specific polyclonal antibody (Pierce Biotechnology Inc, Rockford, Ill.) diluted in 10 mM sodium acetate (pH 4.5) was directly immobilized across a CM5 research grade biosensor chip using a standard amine coupling kit according to manufacturer's instructions and procedures at 25 ug/ml. Unreacted moieties on the biosensor surface were blocked with ethanolamine. Modified carboxymethyl dextran surface in flowcell 2, 3 and 4 were used as a reaction surface. Modified carboxymethyl dextran with goat IgG in flow cell 1 was used as the reference surface. For kinetic analysis, rate equations derived from the 1:1 Langmuir binding model were fitted simultaneously to association and dissociation phases of all six injections (using global fit analysis with local float for Rmax) with the use of Biacore T200 Evaluation software v.1.0. Purified antibodies were diluted in HEPES-buffered saline for capture across goat anti-human IgG specific reaction surfaces. Antibodies to be captured as ligand (1-5 μg/ml) were injected over reaction matrices at a flow rate of 50 μl/minute. Association phase was monitored for 5 minutes, while dissociation phase was monitored for 10-60 minutes to accommodate for slower off-rates. The association and dissociation rate constants, ka (unit M-1 s-1) and kd (unit s-1) were determined under a continuous flow rate of 50 μl/minute. Rate constants were derived by making kinetic binding measurements at six different antigen concentrations ranging from 0.78 nM to 100 nM, depending on the species of IL-17 or TNFα tested. The association ka, dissociation rate kd and equilibrium dissociation constant KD were calculated with the use of the same Biacore T200 Evaluation software v.1.0.

Rhesus TNFa = target: T2, Rhesus TNFa (rhesus, UniProt P48094 77-233); test: as above
T2 construct: also called Rhesus TNF-alpha
T2 sequence (P48094 77-233 limits assumed): as the sequence (P01375 77-233 limits assumed) above, with R44T, T72N, R138L counted along it
Procedure: as §1

Cynomolgus monkey IL-17A = target: T3, Cynomolgus monkey IL-17A (cynomolgus monkey, UniProt A0A2K5TTB0 24-155); test: as above
T3 construct: also called Cyno IL-17AA; Cyno IL17AA
T3 sequence (A0A2K5TTB0 entry or part of it): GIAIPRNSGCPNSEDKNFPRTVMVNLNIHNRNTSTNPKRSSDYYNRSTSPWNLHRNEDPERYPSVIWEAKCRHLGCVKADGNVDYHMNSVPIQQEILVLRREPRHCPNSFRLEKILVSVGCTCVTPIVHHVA
Procedure: as §1

Human IL-17A [3] = target: T4, Human IL-17A (human, UniProt Q16552 20-155, limits assumed); test: as above
T4 construct: Biotinylated in the ELISAs; purified recombinant protein in SPR; also called hIL17A; hIL-17
T4 sequence (Q16552 20-155 limits assumed): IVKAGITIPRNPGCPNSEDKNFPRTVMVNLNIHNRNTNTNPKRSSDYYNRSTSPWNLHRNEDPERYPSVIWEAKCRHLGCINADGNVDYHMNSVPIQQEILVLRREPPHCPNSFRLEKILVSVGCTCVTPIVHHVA
Procedure: as §1

Human TNF [4] = target: T1, Human TNF; test: ELISA, captured DVD-Ig, biotin-human TNF titrated
Procedure: The following protocol is used to characterize the binding of TNF/IL-17 DVD-Ig proteins to human TNF and IL-17 by enzyme-linked immunosorbent assay (ELISA). An ELISA plate was coated with 50 μl per well of goat anti mouse IgG-Fc at 2 μg/ml, overnight at 4° C. The plate was washed 3 times with PBS/Tween. 50 μl Mab diluted to 1 μg/ml in PBS/0.1% BSA was added to appropriate wells and incubated for 1 hour at room temperature (RT). The plate was washed 3 times with PBS/Tween. 50 μl of serial diluted biotin-human TNF or IL-17 was added to appropriate wells and incubated for 1 hour at RT. The plate was washed 3 times with PBS/Tween. 50 μl of streptavidin-HRP diluted 1:10,000 in PBS/0.1% BSA was added to appropriate wells and incubated for 1 hour at RT. The plate was washed 3 times with PBS/Tween. 50 μl of TMB was added to appropriate wells and the reaction allowed to proceed for 1 minute. The reaction was stopped with 50 μl/well 2N H₂SO₄ and the absorbance read at 450 nm.

Human IL-17A [5] = target: T4, Human IL-17A; test: ELISA, captured DVD-Ig, biotin-human IL-17 titrated
Procedure, shortened: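 Plate coated with goat anti-mouse IgG-Fc, then antibody captured at 1 μg/ml; serially diluted biotinylated human TNF or IL-17 added 1 h at RT. Bound ligand detected with streptavidin-HRP and TMB, absorbance at 450 nm.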

Human TNF [6] = target: T1, Human TNF; test: cell-based or functional assay

Binder | binding result (Human TNF [1]) | Kd (Human TNF [2]) [nM] | koff (Human TNF [2]) [s⁻¹] | kon (Human TNF [2]) [M⁻¹ s⁻¹] | Kd (Rhesus TNFa) [nM] | koff (Rhesus TNFa) [s⁻¹] | kon (Rhesus TNFa) [M⁻¹ s⁻¹] | Kd (Cynomolgus monkey IL-17A) [nM] | koff (Cynomolgus monkey IL-17A) [s⁻¹] | kon (Cynomolgus monkey IL-17A) [M⁻¹ s⁻¹] | Kd (Human IL-17A [3]) [nM] | koff (Human IL-17A [3]) [s⁻¹] | kon (Human IL-17A [3]) [M⁻¹ s⁻¹] | EC50 (Human TNF [4]) [nM] | EC50 (Human IL-17A [5]) [nM] | Potency IC50 (nM), L929 bioassay, human TNF (Human TNF [6]) [nM]
B1 | binds | – | – | – | – | – | – | – | – | – | – | – | – | – | – | –
B2 | – | 0.00561 | 2.4e-05 | 4.28e+06 | 0.0137 | 3.03e-05 | 2.2e+06 | 0.00444 | 1.18e-06 | 267000 | 0.0257 | 7.9e-06 | 307000 | 0.095 | 0.088 | 0.033
B3 | – | – | – | – | – | – | – | – | – | – | < 0.00452 | < 1e-06 | 221000 | 0.119 | 0.142 | 0.027
B4 | – | 0.0055 | 2.37e-05 | 4.31e+06 | 0.0108 | 2.39e-05 | 2.21e+06 | 0.00722 | 2.15e-06 | 299000 | 0.0337 | 1.11e-05 | 329000 | 0.22 | 0.078 | 0.031
B5 | binds | – | – | – | – | – | – | – | – | – | – | – | – | – | – | –
B6 | binds | – | – | – | – | – | – | – | – | – | – | – | – | – | – | –
B7 | binds | – | – | – | – | – | – | – | – | – | – | – | – | – | – | –
